From the nanobody polyreactivity screen of Harvey et al. (2022)

Assay: yeast display, Sf9 membrane polyspecificity reagent, FACS + sequencing; frameworks hold sequencing errors
Summary of the method: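 Genes from sorted yeast were amplified by colony PCR, read by MiSeq 2 × 250 sequencing and filtered on CDR length. These cells carried a synthetic nanobody library in Saccharomyces cerevisiae BJ5465 and were sorted by FACS into low and high (top ~1%) gates on anti-HA and streptavidin fluorescence. Polyreactivity is labelled according to the gate of origin.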

| Sequence | polyreactivity (PSR sort gate) |
| --- | --- |
| QVKLQESGGSHVQAGGSLRLSCAASGFIFARNYIGWYRQAPCKERELVAGIGVRASTNYADSDKGRFTISRDNAKNSVYLQMNSLEPEDTAVYYCAVGDTVLGYHYYWGQGTQVTVSN | low polyreactivity |
| QVQLVESGGGLVQAGGSLRLSCAASGNILSVYTMGWYRQAPGKERELVATITYSGDRTYADSVKGRFTISRDNAKKTVYLQMNSLKPEDTAVYYCNAVYYREGMDYWGQGTQVTVSS | low polyreactivity |
| QVQLVESGGGLVQAGGSLRLSCAASGFIFNFYAMGWYRQAPGKERELVAAISRSGGRTYYADSVKGRFTISRDNAKNTVYLQMNSLKPEDTAVYYCAAVTKSLYGYDYWGQGTQVTVSS | low polyreactivity |
| QVQLQESGGGLVQAGGSLRLSCAASSNNTTLDVMCWYRQAPGKEREFVASIGSGGITNYADSVKGRFTISRDNAKNTVYLQMNSLKPEDTAVYYCAVLNQAYTDLIYWGQGTQVTVSS | high polyreactivity |
| QVQLVESGGGLVQAGGSLRLSCAASGRTFYYYAMGWYRQAPGKERELVAAIRWSTGSTYYADSVKGRFTISRDNAKNTVYLQMNSLKPEDTAVYYCAADTWYIQWGYYWGQGTQVTVSS | low polyreactivity |
| QVQLVESGGGLVQAGGSLRLSCAASGNTFLAYVMGWYRQAPGKEREFVAAISRRDGRTYYADSVKGRFTISRDNAKNTVYLQMNSLKPEDTAVYYCNAQRHFWHLYAPSSFDYWGQGTQVTVSS | low polyreactivity |
| QVQLEESGGGLVQAGGSLRLSCAASGSILPDYVMGWYRQAPGKERELVAAISWSDGSTYYADSVKGRFTISRDNAKNTVYLQRNSLKPEDTAVYYCAAEVWDYYYGCYADDYWGQGTQVTVSS | low polyreactivity |
| QVQLVESGGGLVQAGGSLRLSCAASGRIFYFNARGWYRQAPGKERELVAAITSGGSTYYADSVKGRFTISRDNAKNTVYLQMNSLKPEDTAVYYCATDWPHWRYVYWFDYWGQGTQVTVSS | low polyreactivity |
| QVQLVESGGGLVQAGGSLRLSCAASGSILDQNTMGWYRQAPGKERELVAAITGSGGITYYADSVKGRFTISRDNAKNTVYLQMNSLKPEDTAVYYCATRTWRAYRKYNYWGQGTQVTVSS | high polyreactivity |
| QVQLVESGGGLVQAGGSLSLSCAASGFTFTRYVMGWYRQAPGKERELVAAISINGGRTYYADSVKGSFTNSRDNAKNTVYLQMNSLKPEDTAVYYWAAYKTYGSKYVFVDPGEYYYWGQGTQVTVSS | high polyreactivity |
| QVQLVESGGGLVQAGGSLRLSCAASGRIFQRYAMGWYSQAPGKERELVAAISSRGGRTFYADSVKGRFTISRDNAKNTVYLQMNSLKPEDTAAYYCAATATVGCVSFDYWGQGTQVTVSS | high polyreactivity |
| QVQLVESGGGLVQAGGSLRLICAASGRIINGYAMVWYRQAPGKERELVAANSVSGGSTYYADSVKGRFTISRDNAKNTVYLQMNSMKPEDTAVYYCNARIGSRSYAWISTRYDYWGQGNQVTVSS | high polyreactivity |
| QVQLVESGGGLVQAGVSLRLSCAASGVNAMGWYRQAPGKEREFVAAITSIGGSTYYADSVKGRFTISRDNAKNTVYLQMNSLKPEDTAVYYCNTDRGPVKVSPLYESWGQGTQVTVSS | low polyreactivity |
| QVQLVESGGGLVQAGGSLRLSCAASGSIFHPYAMGWYRQAPGKERELVAAISKSGGNTYYADSVKGRFTISRDNAKNTVYLQMNSLKPEDTAVYYCAALDYWGQGTQLTVSS | low polyreactivity |
| QVQLVESGGGLVQAGGSLRLSCADSGSTIYPYAMGWYRQAPGKERELVAAINRSGGRTYYADSVKGRFTISRDNAKNTVYLQMISLKPEDTAVYYCAARVRSRNSYDYWGQGTQVTVSS | low polyreactivity |
| QVQLVESGGGLVQAGGSLRLSCAASGGTLGLNAMGWYRQAPGKEREFVAAINRSGGSTRYADSVKGRFTISRDNAKNTVYLQMNSLKPEDTAVYSCAAVGYWGPSGRHKSSKYEYWGQGTQVTVSS | high polyreactivity |
| QVQLVESGGGLVQAGGSLRLSCAASGRIFWWYTMGWSRQAPGKERELVAAISGSGGSTYYADSVKGRFTISRDNAKNTVYLQMNSLKPEDTAVYYCAAYHRRRATPIHSGEYGYWGQGTQVTVSS | high polyreactivity |
| QVQLVESGGGLVHAGGSLRLSCAASGRIFTIYAMGWYRQAPGKERELVAAISDRGTRTYYADSVKGRFTISRDNAKNTVYLQMNSLKPEETAVYYCATDALYTYGYDYWGQGTQVTVSS | low polyreactivity |
| QVQLVESGGGLVQAGGSLRLTCAASGSTFGYYAMGWNRQATGKERELVASITSDGSTNYADSVKGRFTISRDNAKNTVYLQMNSLKPEDTAVYYCAAYVWRYWHEYDYWGQGTQVTVSS | low polyreactivity |
| QVQLVQSGGGLVQAGGSLRLSCAASGRIFNNYAMGWYRQAPRKERELLAAISGSGGSTYYADSVKGRFTISRDNAKNTVYLQMNCMKPEDTAVYYCSTSGPQYYSRNFDYWGQGTQVTVSS | low polyreactivity |
| QVQLVESGGGLVQAGGSLRLSCAASGSTFDTYAMGWYRPAPGKERELVAAINSGGGTNYADSVKGLFTISRDNAKNTVYLQMNSLKPEDSSVYYCSTDIRRDAGGVDFDYWGQGTQLTVSS | low polyreactivity |
| QVQLVESGGGLVQAGGSLRLSGDATGLIFNKYAMGWYRQAPGKERELVAVISFRGDGTHYADSVKGRFTISRDNAKYTVYLQMNSLKPEDTAVYYCNARTSIYGRRLYDYWGQGTQVTVSS | high polyreactivity |

| Sequence | polyreactivity (PSR sort gate) |
| --- | --- |
| QVQLVESGGGLVQAGGSLRLSCAASGFTFIYYAMGWYRQAPGKERELVAAISSRTGRTYYADSVKGRFTISRDNAKNTVYLQMNSLKPEDTAVYYCNADRNWRSGKFNYWGQGTQVTVSS | high polyreactivity |
| QVQLVESGGGLVQAGGSLRLSCAASGFIFGSYTMGWYRQAPGKERELVAAISSSVGRTYYADSVKGRFTISRDNAKNTVYLQMNSLKPEDTAVYYCAARRHGRVDYSQGSRESDYWGQGTQVTVSS | high polyreactivity |
| QVQLVESGGGLVQAGGSLRLSCAASGSIFKYYAMGGYRQAPGTERELVAAITQRGGSTYYADSVKGRFTISRDNAKNTGYLQMNRLNPEDTAVYYCNRYSLTAWYYRHGYYYWGQGTQVTVSS | high polyreactivity |
| QVQLVESGGGLVQAGGSLRLSCAASGSTSRYNVMGWYRQAPGKERELVAAISSRGVSTYYADSVKGRFTISRDNAKKTVYLQMNSLKPEDTAVYYCAARYGGPSHYGYWGQGTQVTVSS | high polyreactivity |
| QVQLVESGGGLVQAGGSLRLSCAASGLIFVWYAMGWYRQAPGKERELVAAISWSGGSTYYADSVKGRFTISRDNAKTTVYLQMNSLKPEDTAVYYCATDPFGYSYLLVDYNYWGQGTQVTVSS | low polyreactivity |
| QVQLVESGGGLVQAGGSHRLSCAACGYIFFYNAMGWYRQAPGKERELVASITYRGGSTYYADSVKGRFTISRDNAKNSVYLQMNSLKPEDTAVYYCNVDGGGPLGPQGFPFDYWGQGTQVTVSS | low polyreactivity |
| QVQLVDSGGGLVQAGGSLPLSCAASGSIFDDYAMGWNRKAPGKERELVAAISGGVSTNYADSVKGRFTISRDNAKKTDYLQINSLKPEDTAVYYCNADYARAYIHEYWGQGTQVTVSS | low polyreactivity |
| QVKLVESGGGLDQAGGSLRLSCAASGRTFGSYTMGWYRQAPGKERELVAAITSGGRTNYADSVKGRFTISRDNAKNTVYLQMNSLKPEDTAVYYCAAGWRGGRYRYFAYDYWGQGTQVTVSS | high polyreactivity |
| QVQLVESGGGLVQAGGSLRLSCAASGRIFAYYAMGWYRQAPGKERELVATISVTGGSTYYADSVKGRFTISRDNAKNTVYLQMNSLKPEDTAVYYCNVDPGTYWPYSGEDYWGQGTQVTVSS | low polyreactivity |
| QVQLVESGGGLVQAGGSLRLSCAASGSIFKKYAMGWYRQAPGKERELFAAITRGTYYADSVKGRFTISRDNAKNTVYFQMNSLKPEDTAVYFCNREYWGRGYYRVRGEYDYWGQGTQVTVSS | low polyreactivity |
| QVQLVESGGGLVQAGGSLRLSCDASGLIFITYAMRWYRQAPGKERELVATITLRGGSTYYADSVKGRFTISRDNAKNTVYLQMNSLKPEDTAVYYCAAEVGYWGRSRGYPSDDYDYCGQGTQVTVSS | low polyreactivity |
| QVQLVESGGGLVKAGGILRLSCAASGYIFVRYAMGWYRQAPGKERELVAAISYRGGSTYADSVKGRFTISRDNAKNTVYLQMNRLKPEDTAVYYCAAQRWYVYGQKYHYGYWGQVTQVTVSS | high polyreactivity |
| QVQLVESGGGLVQAGGSLRLSCAASGRTFAHNAMGWYRQAPGKERELVAAITWSGGTTYYADSVKGRFTISRDNAKNTVYLHMNSLKPEDTAVYYCNTYSYQPDPKYDYWGQGTQVTVSS | low polyreactivity |
| QVQRVESGRGLFHAGGSLRLSCAASGSIFIWNDMGWYRQAPGKERELVAAITISAGSTSYADSVKGRFTISRDNAKNTVYLQMKSLKPEDTAVYYCAAASWLGAYGYEYDYWGQGTQVTVSS | low polyreactivity |
| QVQLVESGGGLVQAGGSLRLSCAASGRTFWRNAMGWYRPAPGKERELVAVISVRGSSTSYADSVKGRFTISRDNAKNNVYFQMNILKPEDTGVYYCAAGRRYRSVGYGYWGQGTQLTVSS | high polyreactivity |
| QVQLVESGGGLVQAGGSLRLSCAASGSIFIDNAMGWYRQAPGKEREFVAAISKSGTSTYYADSVKGRFTISRDNAKNTVYLQMNSLKPEDTAVYYCAVRRPRPYSNYYYWGQGTQVTVSS | high polyreactivity |
| QVQLQESGGGLVQAGGSLRLSCAAIGSISILQSMGWYRQAPGKERELVAGINWGATTYYADSVKGRLTTSRDYAKNTVYLQMNSLKPEDTAVYYCAVPTYYTYPLLYWGQGTQVTVSS | low polyreactivity |
| QVQLVESGGGFVQAGGSLRLSCAASGSTFSHYTMGWYSQAPGNERELLAAINYGGASTYYADSVKGRFTISRDNAKNTVYLQMNSQKPEDTAVYYCAAANRPSEQDNYWGQGTQVTVSS | low polyreactivity |
| QVQLVESGGGLVQAGGSLRLSCAASVYAMGWYRQAPGKERELVAAITDSGSTNYADSVKGRFTISRDNAKNTVYLQMNSLKPEDNAVYYCNADPYYATGSWARLPLYQYDYWGQGTQVTVSS | low polyreactivity |
| QVQLVESGGGLVQAGGSLRLSCAASGRIFYSYAMGWYRQAPGKERELVAAITRSVARTYYADSVKGRFTISRDNAKNTVYLQMNCLKPEDTAVYYCAADWYQWGGRYYAPRYYYWGQGTQVTVSS | high polyreactivity |
| QVQLVETGGGLVQAGGSLRLSCAASGSIFSGNAMGRSRPAPGKERELVGAITGSGGSTYYADSVKGRFTITRDNAKNTVYLQMNSLKPVDTAVYYCAVLFRTFYYWGQGTQVTVSS | high polyreactivity |
